# Test results published in patent US20120070446A1 (AstraZeneca / MedImmune, published 2012).
# Key:
# [1] = biological target: T1, HIS-tagged recombinant F protein from RSV Long strain (Respiratory Syncytial Virus Long strain, UniProt P12568 26-524); assay: direct ELISA, HIS-tagged F on Ni-NTA HisSorp plates
# T1 construct: also called recombinant HIS tagged F protein; recombinant RSV F Long strain containing a poly HIS tag; not shown: poly HIS tag
# [2] = biological target: F protein of RSV A2 virus (on virus particles, neutralization assay) (Respiratory Syncytial Virus A2, UniProt P03420 26-574); assay: cell-based or functional assay
# T1 sequence (P12568 26-524): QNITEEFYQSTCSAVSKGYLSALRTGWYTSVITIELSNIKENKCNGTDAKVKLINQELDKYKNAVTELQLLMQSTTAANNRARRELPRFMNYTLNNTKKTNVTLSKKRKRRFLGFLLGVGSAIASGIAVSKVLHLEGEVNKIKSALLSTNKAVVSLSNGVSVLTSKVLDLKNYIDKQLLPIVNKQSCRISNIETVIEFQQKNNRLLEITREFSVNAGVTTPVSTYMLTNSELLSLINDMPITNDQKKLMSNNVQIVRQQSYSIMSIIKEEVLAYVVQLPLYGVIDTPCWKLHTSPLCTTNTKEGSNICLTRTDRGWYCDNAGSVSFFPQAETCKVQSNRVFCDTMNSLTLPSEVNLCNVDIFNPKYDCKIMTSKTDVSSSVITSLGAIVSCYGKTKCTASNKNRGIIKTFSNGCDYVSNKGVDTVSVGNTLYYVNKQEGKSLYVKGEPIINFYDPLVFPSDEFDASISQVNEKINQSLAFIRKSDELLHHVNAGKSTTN
Binder,binding result [1],"IC50 (ng/ml), RSV neutralizing activity, TCID50 culture assay on HEp2 cells with the RSV A2 virus [2] [ng/mL]"
"AM22 (recombinant AM22 mAb, human IgG1/Kappa) (antibody, V domains shown, also called AM22 antibody; AM22 monoclonal antibody) VH: QVQLVQSGAEVKKPGATVKVSCKISGHTLIKLSIHWVRQAPGKGLEWMGGYEGEVDEIFYAQKFQHRLTVIADTATDTVYMELGRLTSDDTAVYFCGTLGVTVTEAGLGIDDYWGQGTLVTVSS VL: EIVLTQSPGTLSLSPGERATLSCRASQIVSRNHLAWYQQKPGQAPRLLIFGASSRATGIPVRFSGSGSGTDFTLTINGLAPEDFAVYYCLSSDSSIFTFGPGTKVDFK",no binding,–
"palivizumab (antibody, V domains shown) VH: QVTLRESGPALVKPTQTLTLTCTFSGFSLSTSGMSVGWIRQPPGKALEWLADIWWDDKKDYNPSLKSRLTISKDTSKNQVVLKVTNMDPADTATYYCARSMITNWYFDVWGAGTTVTVSS VL: DIQMTQSPSTLSASVGDRVTITCKCQLSVGYMHWYQQKPGKAPKLLIYDTSKLASGVPSRFSGSGSGTEFTLTISSLQPDDFATYYCFQGSGYPFTFGGGTKLEIK",–,152
